# Tested on: NC(=O)C[C@H](N)C(=O)O
# Assay: purified protein
# Assay type: biochemical, Mycolicibacterium smegmatis
# Details: 50 mM Tris-HCl pH 8.6, 37 °C (standard assay), 0.05-4.0 mM L-Asn
substance,measurement,value
"MsA (Mycobacterium smegmatis L-asparaginase, MSMEG_3173) (Mycolicibacterium smegmatis MC2 155)",Km,1403 ± 240 µM
same,kcat,708.1 ± 25.05 s⁻¹
